Molecular target: SARS-CoV-2南非株(B.1.351)活病毒的S蛋白 (SARS-CoV-2 B.1.351)
Assay: cell-based or functional assay

B1: 9K抗体 (antibody, V domains shown)
VH: EVQLVESGGGVVQPGRSLGLSCAVSGFTFSSYAMHWVRQAPGKGLEWVALISNDGTIDSYADSVKGRFTISRDNSKNTLYLRMSSLRAEDTAVYYCARDKEQLVPTFDYWGQGTLVTVSS
VL: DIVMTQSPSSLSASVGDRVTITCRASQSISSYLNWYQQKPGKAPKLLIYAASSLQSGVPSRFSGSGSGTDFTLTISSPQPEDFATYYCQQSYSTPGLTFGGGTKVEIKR
With B1 as the binder, how does the “中和滴度(半抑制浓度，IC50), live virus CPE assay on Vero E6 cells” value read?
Its value is 11.5 µg/mL.

Reference: patent publication CN113929774A (INST MICROBIOLOGY CAS, dated 2022)
